Results: patent US20230416343A1
Read-outs that look alike come from different tables or passages of the source.

Experiments:
[1] = biological target: SARS-CoV-2 variant spike protein del 69-79 plus N501Y and D614G on HEK293 cells (SARS-CoV-2) (UniProt P0DTC2)
[2] = biological target: SARS-CoV-2 variant spike protein del 69-79 plus N439K on HEK293 cells (SARS-CoV-2) (UniProt P0DTC2)
[3] = biological target: SARS-CoV-2 Delta variant S protein expressed on HEK293 cells (SARS-CoV-2) (UniProt P0DTC2)
[4] = biological target: SARS-CoV-2 variant spike protein del 69-79 plus N501Y on HEK293 cells (SARS-CoV-2) (UniProt P0DTC2)
[5] = biological target: SARS-CoV-2 variant spike protein del 69-79 plus N439K on HEK293 cells (SARS-CoV-2) (UniProt P0DTC2); remark: listed apart in the source
[6] = biological target: SARS-CoV-2 Delta Plus variant S protein expressed on HEK293 cells (SARS-CoV-2) (UniProt P0DTC2)
[7] = biological target: SARS-CoV-2 Delta variant S protein expressed on HEK293 cells (SARS-CoV-2) (UniProt P0DTC2); remark: listed apart in the source

S1D7270LALA antibody (STI-2020)
EC50 [1]: 172 µg/mL
EC50 [2]: 70 µg/mL
EC50 [3]: 0.106 µg/mL
EC50 (read off the curve) [4]: 0.09 µg/mL
EC50 (read off the curve) [5]: 0.07 µg/mL
EC50 [6]: 0.187 µg/mL
EC50 [7]: 0.105 µg/mL
